Values of other authors as cited in paper PMC4237619.
pKd: −log10 of the molar value. Where two headings read alike, the source gives them in different places. One block for each substance: values may come before it.

Columns and labels:
VEGF (Homo sapiens) [1] = biological target: VEGF (Homo sapiens) (UniProt P15692)
VEGF (Homo sapiens) [2] = biological target: VEGF (Homo sapiens) (UniProt P15692); remark: listed apart in the source
VEGF (Homo sapiens) [3] = biological target: VEGF (Homo sapiens) (UniProt P15692); remark: listed apart in the source

Sequence of UniProt P15692 (P15692 whole entry): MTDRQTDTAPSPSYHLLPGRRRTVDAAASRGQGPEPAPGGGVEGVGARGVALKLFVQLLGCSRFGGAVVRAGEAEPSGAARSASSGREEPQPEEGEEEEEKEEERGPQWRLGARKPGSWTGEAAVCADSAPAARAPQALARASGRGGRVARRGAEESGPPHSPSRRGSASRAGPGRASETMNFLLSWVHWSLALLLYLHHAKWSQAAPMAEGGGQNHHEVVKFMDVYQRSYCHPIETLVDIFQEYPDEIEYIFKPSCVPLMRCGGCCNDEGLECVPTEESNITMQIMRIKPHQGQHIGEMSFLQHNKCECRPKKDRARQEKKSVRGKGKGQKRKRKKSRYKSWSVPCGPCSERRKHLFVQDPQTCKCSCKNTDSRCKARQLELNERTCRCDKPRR

- pKd (VEGF (Homo sapiens) [1]): 6.04
Substance: NH2-GGGG-SY(SO3)DY(SO3)GGGG-OH peptide

- pKd (VEGF (Homo sapiens) [2]): 5.51
Substance: SY(SO3)DY(SO3)G peptide

- pKd (VEGF (Homo sapiens) [3]): 9.48
Substance: ATWLPPR peptide
